T1: human NLRP1 (full-length) (human, UniProt Q9C000 1-1473, myc or V5 epitope tags in some assays (letters not given, left out); 35S-methionine label in the GST binding assay)
T1 construct: also called NLRP1-myc; NLRP1-V5
T1 sequence: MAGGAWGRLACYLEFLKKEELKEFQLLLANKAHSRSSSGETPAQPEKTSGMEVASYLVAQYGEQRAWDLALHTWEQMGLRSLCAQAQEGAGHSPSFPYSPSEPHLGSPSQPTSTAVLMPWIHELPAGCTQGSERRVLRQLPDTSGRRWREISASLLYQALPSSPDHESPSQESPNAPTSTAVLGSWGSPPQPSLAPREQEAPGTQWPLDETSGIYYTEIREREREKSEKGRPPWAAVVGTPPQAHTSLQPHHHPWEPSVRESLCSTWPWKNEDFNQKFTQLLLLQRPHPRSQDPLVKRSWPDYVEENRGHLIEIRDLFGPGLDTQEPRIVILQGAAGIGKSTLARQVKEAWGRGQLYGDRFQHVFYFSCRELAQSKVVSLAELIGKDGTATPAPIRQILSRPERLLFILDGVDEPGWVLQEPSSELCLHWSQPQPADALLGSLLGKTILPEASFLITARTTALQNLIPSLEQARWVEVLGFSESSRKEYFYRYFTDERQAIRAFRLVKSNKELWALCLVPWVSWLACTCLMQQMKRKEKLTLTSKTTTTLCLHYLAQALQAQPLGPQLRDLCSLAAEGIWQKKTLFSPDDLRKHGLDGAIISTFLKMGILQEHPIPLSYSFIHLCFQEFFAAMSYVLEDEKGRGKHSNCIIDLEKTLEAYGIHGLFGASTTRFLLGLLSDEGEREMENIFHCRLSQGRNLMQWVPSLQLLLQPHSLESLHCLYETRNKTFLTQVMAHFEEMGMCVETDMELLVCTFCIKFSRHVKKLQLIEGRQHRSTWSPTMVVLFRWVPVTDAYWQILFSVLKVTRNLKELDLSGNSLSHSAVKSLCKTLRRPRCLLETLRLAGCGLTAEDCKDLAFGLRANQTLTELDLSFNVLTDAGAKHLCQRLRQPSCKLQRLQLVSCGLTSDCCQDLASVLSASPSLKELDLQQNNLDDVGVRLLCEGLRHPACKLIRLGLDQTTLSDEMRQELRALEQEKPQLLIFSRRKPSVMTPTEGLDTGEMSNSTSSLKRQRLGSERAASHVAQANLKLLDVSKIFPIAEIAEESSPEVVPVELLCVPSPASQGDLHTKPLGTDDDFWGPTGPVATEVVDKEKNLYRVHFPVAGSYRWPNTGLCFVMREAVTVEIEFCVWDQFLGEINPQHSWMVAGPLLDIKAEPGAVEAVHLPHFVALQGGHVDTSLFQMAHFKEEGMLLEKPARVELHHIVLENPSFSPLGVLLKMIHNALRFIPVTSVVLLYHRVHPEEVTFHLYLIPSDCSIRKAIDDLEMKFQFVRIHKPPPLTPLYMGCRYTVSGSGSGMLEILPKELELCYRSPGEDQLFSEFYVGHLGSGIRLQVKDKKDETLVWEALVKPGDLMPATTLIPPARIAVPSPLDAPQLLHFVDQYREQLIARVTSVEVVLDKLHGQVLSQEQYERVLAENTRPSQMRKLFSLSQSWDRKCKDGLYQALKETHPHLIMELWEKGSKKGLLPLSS

T2: NLRP1 (Homo sapiens, UniProt Q9C000)
T2 construct: host or cells: cell-free coupled transcription/translation
T2 sequence (Q9C000 1-1473): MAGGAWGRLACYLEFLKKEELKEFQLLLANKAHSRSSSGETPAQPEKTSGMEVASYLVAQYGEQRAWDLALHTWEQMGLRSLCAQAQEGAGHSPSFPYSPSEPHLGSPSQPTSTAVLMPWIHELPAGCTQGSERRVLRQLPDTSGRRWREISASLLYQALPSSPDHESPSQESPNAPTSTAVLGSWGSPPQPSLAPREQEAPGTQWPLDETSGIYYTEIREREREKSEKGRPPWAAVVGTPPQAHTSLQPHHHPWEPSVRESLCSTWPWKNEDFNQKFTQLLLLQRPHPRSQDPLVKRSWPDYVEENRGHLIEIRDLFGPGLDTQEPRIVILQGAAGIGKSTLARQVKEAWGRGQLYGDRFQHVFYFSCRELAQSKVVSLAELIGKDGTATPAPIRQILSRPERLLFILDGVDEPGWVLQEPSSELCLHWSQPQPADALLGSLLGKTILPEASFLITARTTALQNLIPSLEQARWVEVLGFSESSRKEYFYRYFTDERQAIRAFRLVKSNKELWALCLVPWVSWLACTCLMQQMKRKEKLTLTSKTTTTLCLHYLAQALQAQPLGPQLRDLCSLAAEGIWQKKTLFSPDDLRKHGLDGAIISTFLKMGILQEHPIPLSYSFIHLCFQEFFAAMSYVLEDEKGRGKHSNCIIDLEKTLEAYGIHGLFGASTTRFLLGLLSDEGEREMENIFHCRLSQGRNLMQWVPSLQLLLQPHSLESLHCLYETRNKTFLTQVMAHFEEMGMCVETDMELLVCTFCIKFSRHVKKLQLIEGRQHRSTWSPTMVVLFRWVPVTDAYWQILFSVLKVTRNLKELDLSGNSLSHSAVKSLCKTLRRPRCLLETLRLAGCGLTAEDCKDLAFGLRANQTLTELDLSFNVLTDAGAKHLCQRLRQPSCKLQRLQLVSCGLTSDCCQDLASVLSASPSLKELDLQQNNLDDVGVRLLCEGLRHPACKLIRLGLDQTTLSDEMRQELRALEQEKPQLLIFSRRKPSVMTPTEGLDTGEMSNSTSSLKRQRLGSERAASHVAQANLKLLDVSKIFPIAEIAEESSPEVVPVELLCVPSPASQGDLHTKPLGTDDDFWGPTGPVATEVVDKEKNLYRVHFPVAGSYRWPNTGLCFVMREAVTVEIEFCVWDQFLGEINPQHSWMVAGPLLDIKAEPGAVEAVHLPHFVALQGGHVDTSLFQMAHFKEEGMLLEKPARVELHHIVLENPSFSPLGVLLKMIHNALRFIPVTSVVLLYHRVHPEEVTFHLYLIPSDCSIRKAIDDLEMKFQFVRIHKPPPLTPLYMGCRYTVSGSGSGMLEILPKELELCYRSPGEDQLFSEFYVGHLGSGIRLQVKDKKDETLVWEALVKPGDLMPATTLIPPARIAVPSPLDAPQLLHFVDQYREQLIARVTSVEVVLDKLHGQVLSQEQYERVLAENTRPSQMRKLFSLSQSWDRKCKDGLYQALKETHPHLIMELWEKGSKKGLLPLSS

B1: GST-Orf63 (other)
chain: MDGTDALEKLTKGLSGGGGSLHQTKLLMEFQLRGLPVPALLNSSTTEQFLNTVAQLPTDLSKFIRDYRVFALVRAAYFLEPPSSIDPLEAARALGRLVDILSSQPPQNTAPAQPPTSDDTLNNCTLLKLLAHYADQIAGFKTPALPPVPPGIIGLFTCVEQMYHACFQKYWAAALPPMWILTYDPPTSPLQDWLIVAYGNKEGLLLPSGIPSEEVLAKTLVTEHHELFVSRSNSTETAVTMPVSKERALAIYRVFAKGEVVAENTPILAFTDVELSTLKPHYLFIYDFIIEALCKSYTYSCTQARLESFLSRGIDFMTDLGQYLDTATSGKQQLTHSQIKEIKYRLLSCGLSASACDVFRTVIMTLPYRPTPNLANLSTFMGMVHQLTMFGHYFYRCLGSYSPTGLAFTELQKILTRASAEQTERNPWRHPGISDIPLRWKISRALAFFVPPAPINTLQRVYAALPSQLMRAIFEISVKTTWGGAVPANLARDIDTGPNTQHISSTPPPTLKDVETYCQGLRVGDTEYDEDIVRSPLFADAFTKSHLLPILREVLENRLQKNRALFQIRWLIIFAAEAATGLIPARRPLARAYFHIMDILEERHSQDALYNLLDCIQELFTHIRQAVPDAQCPHAFLQSLFVFQFRPFVLKHQQGVTLFLDGLQTSLPPVISLANLGDKLCRLEFEYDSEGDFVRVPVAPPEQPPHVHLSHFKKTIQTIEQATREATVAMTTIAKPIYPAYIRLLQRLEYLNRLNHHILRIPFPQDALSELQETYLAAFARLTKLAADAANTCSYSLTKYFGVLFQHQLVPTAIVKKLLHFDEAKDTTEAFLQSLAQPVVQGQRQGAAGGSGVLTQKELELLNKINPQFTDAQANIPPSIKRSYSNKYDVPEVSVDWETYSRSAFEAPDDELRFVPLTLAGLRKLFVE
modifications: N-terminal GST fusion and C-terminal FLAG tag are not carried by the letters
notes: also called GST-tagged Orf63; purified GST-Orf63 protein; not shown: N-terminal GST of the pGex5p-1 vector with its protease-site linker; C-terminal FLAG tag
B2: GST-Orf63: purified GST-tagged Orf63 fusion protein (protein)
chain: MDGTDALEKLTKGLSGGGGSLHQTKLLMEFQLRGLPVPALLNSSTTEQFLNTVAQLPTDLSKFIRDYRVFALVRAAYFLEPPSSIDPLEAARALGRLVDILSSQPPQNTAPAQPPTSDDTLNNCTLLKLLAHYADQIAGFKTPALPPVPPGIIGLFTCVEQMYHACFQKYWAAALPPMWILTYDPPTSPLQDWLIVAYGNKEGLLLPSGIPSEEVLAKTLVTEHHELFVSRSNSTETAVTMPVSKERALAIYRVFAKGEVVAENTPILAFTDVELSTLKPHYLFIYDFIIEALCKSYTYSCTQARLESFLSRGIDFMTDLGQYLDTATSGKQQLTHSQIKEIKYRLLSCGLSASACDVFRTVIMTLPYRPTPNLANLSTFMGMVHQLTMFGHYFYRCLGSYSPTGLAFTELQKILTRASAEQTERNPWRHPGISDIPLRWKISRALAFFVPPAPINTLQRVYAALPSQLMRAIFEISVKTTWGGAVPANLARDIDTGPNTQHISSTPPPTLKDVETYCQGLRVGDTEYDEDIVRSPLFADAFTKSHLLPILREVLENRLQKNRALFQIRWLIIFAAEAATGLIPARRPLARAYFHIMDILEERHSQDALYNLLDCIQELFTHIRQAVPDAQCPHAFLQSLFVFQFRPFVLKHQQGVTLFLDGLQTSLPPVISLANLGDKLCRLEFEYDSEGDFVRVPVAPPEQPPHVHLSHFKKTIQTIEQATREATVAMTTIAKPIYPAYIRLLQRLEYLNRLNHHILRIPFPQDALSELQETYLAAFARLTKLAADAANTCSYSLTKYFGVLFQHQLVPTAIVKKLLHFDEAKDTTEAFLQSLAQPVVQGQRQGAAGGSGVLTQKELELLNKINPQFTDAQANIPPSIKRSYSNKYDVPEVSVDWETYSRSAFEAPDDELRFVPLTLAGLRKLFVE
modifications: left off: a dimerising Fc or GST; small tags and cut ends
notes: purified GST-tagged Orf63 fusion protein

Legend:
[1] = target: T1, human NLRP1 (full-length); experiment: GST binding assay on glutathione beads with in vitro translated 35S-labeled protein, phosphorimager
NLRP1 = target: T2, NLRP1; experiment: GST binding assay with 35S-methionine-labeled NLRP1; details: purified GST-Orf63 on glutathione beads
Procedure: (§1) In-vitro transcription/translation: [^35S]-methionine (Perkin-Elmer) labeled NLRP1, NLRP3 and control luciferase proteins were prepared using TnT T7 Quick Coupled Transcription/Translation System (Promega) according to manufacturer's instructions. pcDNA3-NLRP1 and pcDNA3-NLRP3 plasmids were used for the transcription/translation reaction.
(§2) GST binding Assay: Expression and purification of GST fusion proteins were performed as previously described (29) and equal amounts of GST and GST-Orf63 were bound to glutathione beads (29). Equivalent amounts (1×10^5 cpm) of ^35S-methionine labeled NLRP1, NLRP3 and luciferase proteins were incubated with the GST and GST-Orf63 bound protein in NETN+ buffer plus protease inhibitors for an hour at 4° C. NETN+ buffer comprised of 20 mM Tris (pH 7.5), 100 mM NaCl, 1 mM EDTA, 0.1% NP-40, 1 mM DTT. The bound complexes were washed five times (5 minute washes) in NETN+ buffer. The samples were subjected to SDS-PAGE. The gel was fixed, dried and exposed to a phosphoimager.

NLRP3 = target: T3, NLRP3 (Homo sapiens, UniProt Q96P20); experiment: GST binding assay with 35S-methionine-labeled NLRP3; details: purified GST-Orf63 on glutathione beads
T3 construct: primers designed to the open reading frames of procaspase-1, pro-IL-1beta, NOD1, NOD2, and NLRP3; expressed in transfected cells; host or cells: 293T
Procedure: as §1, §2

T3 sequence (Q96P20 whole entry): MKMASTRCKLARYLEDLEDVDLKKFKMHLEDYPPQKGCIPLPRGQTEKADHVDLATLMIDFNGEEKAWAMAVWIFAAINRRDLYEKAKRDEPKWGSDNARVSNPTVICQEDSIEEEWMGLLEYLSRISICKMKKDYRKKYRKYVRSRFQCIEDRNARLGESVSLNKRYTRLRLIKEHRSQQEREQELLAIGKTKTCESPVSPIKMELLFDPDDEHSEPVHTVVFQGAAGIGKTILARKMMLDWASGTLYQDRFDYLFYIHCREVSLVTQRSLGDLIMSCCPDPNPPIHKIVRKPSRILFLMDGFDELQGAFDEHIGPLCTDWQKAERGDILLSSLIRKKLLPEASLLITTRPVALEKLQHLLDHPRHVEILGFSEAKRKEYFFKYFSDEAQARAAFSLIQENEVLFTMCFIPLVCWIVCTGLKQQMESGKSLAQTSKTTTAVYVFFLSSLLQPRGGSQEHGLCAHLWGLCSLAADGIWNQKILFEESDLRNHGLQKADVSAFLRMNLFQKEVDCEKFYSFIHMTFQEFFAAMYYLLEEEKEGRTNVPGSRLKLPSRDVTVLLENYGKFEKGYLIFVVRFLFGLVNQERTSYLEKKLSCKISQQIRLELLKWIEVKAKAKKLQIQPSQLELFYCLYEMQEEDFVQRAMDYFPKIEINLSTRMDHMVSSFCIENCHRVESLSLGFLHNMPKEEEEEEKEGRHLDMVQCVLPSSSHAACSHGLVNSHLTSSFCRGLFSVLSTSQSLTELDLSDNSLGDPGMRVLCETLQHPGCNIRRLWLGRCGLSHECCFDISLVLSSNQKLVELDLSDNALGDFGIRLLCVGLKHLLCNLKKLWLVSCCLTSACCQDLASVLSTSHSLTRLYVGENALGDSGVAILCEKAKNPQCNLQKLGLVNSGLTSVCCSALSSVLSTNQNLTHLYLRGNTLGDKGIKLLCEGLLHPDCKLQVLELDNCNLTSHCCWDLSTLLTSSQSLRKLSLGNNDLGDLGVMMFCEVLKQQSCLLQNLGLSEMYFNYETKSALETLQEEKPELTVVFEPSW

Molecule	binding result [1]	binding of 35S-methionine-labeled NLRP1 (NLRP1)	binding of 35S-methionine-labeled NLRP3 (NLRP3)
B1	binds		
B2		bound	bound

Source: US20130225479A1, “Methods and Compositions for Treating Inflammation” (The University of North Carolina at Chapel Hill, priority 2010, published 2013)
